In paper PMC8924211 (Nature Communications, 2022):
Positions count from the first letter of the chain named.

Columns and labels:
Test in all cases: AlphaScreen or HTRF; saturation binding: HEK293 cells transfected with SNAP-tagged receptor (WT or mutant) and labelled with SNAP-Lumi4-Tb, incubated with increasing concentrations of galanin-A2 in the presence or absence of 100 uM unlabeled galanin, 1 h at room temperature; HTRF ratio 665 nm/620 nm
Settings in all cases: one partner purified
SNAP-GAL1R H263^6.51A = molecular target: T1, SNAP-GAL1R H263^6.51A (human, UniProt P47211 1-349, H263^6.51A, Lumi4-Tb on the SNAP tag)
T1 construct: also called H263A; source: HEK293, transfected, on cells; not shown: SNAP tag, N-terminal, kept
T1 sequence (looked up): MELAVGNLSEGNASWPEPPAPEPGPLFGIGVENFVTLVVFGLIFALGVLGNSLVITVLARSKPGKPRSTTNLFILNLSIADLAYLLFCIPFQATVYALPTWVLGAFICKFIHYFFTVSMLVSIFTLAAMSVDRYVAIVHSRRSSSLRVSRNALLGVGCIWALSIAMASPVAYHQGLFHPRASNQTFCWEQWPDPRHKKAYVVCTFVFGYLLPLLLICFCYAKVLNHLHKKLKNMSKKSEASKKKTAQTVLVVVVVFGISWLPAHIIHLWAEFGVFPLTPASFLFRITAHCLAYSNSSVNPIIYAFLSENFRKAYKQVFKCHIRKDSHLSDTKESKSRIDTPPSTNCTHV

SNAP-GAL1R W260^6.48A = molecular target: T2, SNAP-GAL1R W260^6.48A (human, UniProt P47211 1-349, W260^6.48A, Lumi4-Tb on the SNAP tag)
T2 construct: also called W260A; source: HEK293, transfected, on cells; not shown: SNAP tag, N-terminal, kept
T2 sequence (looked up): T1 sequence (looked up) with W260A, A263H

SNAP-GAL1R F177^ECL2A = molecular target: T3, SNAP-GAL1R F177^ECL2A (human, UniProt P47211 1-349, F177^ECL2A, Lumi4-Tb on the SNAP tag)
T3 construct: also called F177A; source: HEK293, transfected, on cells; not shown: SNAP tag, N-terminal, kept
T3 sequence (looked up): T1 sequence (looked up) with F177A, A263H

SNAP-GAL1R I266^6.54A = molecular target: T4, SNAP-GAL1R I266^6.54A (human, UniProt P47211 1-349, I266^6.54A, Lumi4-Tb on the SNAP tag)
T4 construct: also called I266A; source: HEK293, transfected, on cells; not shown: SNAP tag, N-terminal, kept
T4 sequence (looked up): T1 sequence (looked up) with A263H, I266A

SNAP-GAL1R Q174^4.64A = molecular target: T5, SNAP-GAL1R Q174^4.64A (human, UniProt P47211 1-349, Q174^4.64A, Lumi4-Tb on the SNAP tag)
T5 construct: also called Q174A; source: HEK293, transfected, on cells; not shown: SNAP tag, N-terminal, kept
T5 sequence (looked up): T1 sequence (looked up) with Q174A, A263H

B1: galanin-A2 (full-length galanin labeled with the dye A2 on an additional cysteine at the C-terminal end) (peptide)
peptide: GWTLNSAGYLLGPHAVGNHRSFSDKNGLTSC
modifications: dye A2 on the additional C-terminal cysteine
notes: numbers count on: the mature protein; additional cysteine at the C-terminal end of the peptide, carries the dye A2; source: synthetic peptide (synthesized by Vazyme, China)
B1 showed a Kd (SNAP-GAL1R H263^6.51A) of 0.213 µM, a Kd (SNAP-GAL1R W260^6.48A) of 0.0512 µM and a Kd (SNAP-GAL1R F177^ECL2A) of 0.305 µM. It also gave a Kd (SNAP-GAL1R I266^6.54A) of 0.245 µM and a Kd (SNAP-GAL1R Q174^4.64A) of 0.351 µM.
